In US5457182A (Merck & Co., Inc., priority 1994, dated 1995):

What was measured:
[1] = test system: calcineurin; test: FKBP.FK-506.CaN complex-formation assay (size-exclusion column, Western analysis); assay type: binding, bovine; conditions: partially purified FKBPs, CaM, Ca^2+, Mg^2+ and FK-506
Method: In the modified assay, samples were assayed by Western analysis using the anti-C-terminal peptide antibody in order to identify FKBP12 and FKBP12.6 in various chromatographic fractions.
In the first experiment, FKBP12 and FKBP12.6 were partially purified by preparative HPLC gel filtration chromatography on a Bio-Sil TSK-125 column. These partially purified FKBPs (containing both FKBP12 and FKBP12.6) are devoid of CaN which separates completely from them on this column. FKBP12 and FKBP12.6 co-elute at fractions 26 and 27 on the analytical sizing column (G2000SW) used in this experiment. […] Because this crude FKBP material also contains FKBP12.6, it can also be observed migrating slightly above FKBP12 in FIG. 4A.
To more carefully examine the requirements for FKBP12.6 complex formation with CaN, experiments were conducted using purified FKBP12.6.
The incubation buffer contained 20 mM Tris (pH 7.5), 100 mM NaCl, 6 mM MgCl2, 0.1 mM CaCl2, 0.1 mg/ml BSA, and 0.5 mM dithiothreitol. The incubation reaction was chromatographed on a Bio-Sil SEC400 HPLC column (Bio-Rad) at a flow rate of 1 ml/min and 1 min fractions were collected. The chromatography buffer was the same as the incubation buffer except that BSA was omitted. 30 μl of fractions 19-29 were subjected to electrophoresis on a 16% Novex Tris-Glycine gel and Western analysis was performed as described above.

[2] = Peptidyl-prolyl cis-trans isomerase (PPIase) activity; assay type: biochemical; conditions: homogeneous FKBP12 vs partially pure (about 25%) FKBP12.6
Method: PPIase assays were performed as described (Fischer, G., et al., Nature, 337,476-478 (1989)) with the following changes: the peptide substrate used was N-succinyl-Ala-Leu-Pro-Phe-p-nitroanilide (BACHEM, California) at a final concentration of 72 μM and chymotrypsin (Sigma) was present in the assay at a concentration of 6 μM. The total reaction volume was 1.5 ml. The release of p-nitroanilide by chymotrypsin was measured by following the increase in absorbance at 405 nm on a Beckman DU68 spectrophotometer. After an initial rapid rise in absorbance due to hydrolysis of the trans peptide, the slow secondary increase in absorbance which reflects the cis-to-trans conversion of the peptide by the PPIase was measured at 3 sec intervals out to 1.5 min. The data were fitted to a simple first-order rate equation and the first-order rate constant, k (s^-1), calculated.

[3] = biological target: calcineurin; test: Calcineurin phosphatase assay; assay type: biochemical, bovine; conditions: in presence of FK-506, CaN, CaM, Ca^2+, Mg^2+; read-out: IC50 for inhibition of CaN
Method: For a side-by-side comparison, FKBP12 was also tested for its ability to inhibit calcineurin in the presence of drug.
The calcineurin phosphatase assay is a modified version of previous assays (Liu, J., et al., Cell, 66, 807-815 (1991); Manalan, A., et al., Proc. Natl. Acad. Sci. U.S.A., 80, 4291-4295 (1983)). Reaction mixtures ([…] contained: 40 mM Tris (pH 8), 100 mM NaCl, 6 mM Mg(OAc)2, 0.1 mM CaCl2, 0.1 mg/ml BSA, 0.5 mM dithiothreitol, 190 nM bovine brain calmodulin (Sigma), 3 nM bovine brain calcineurin (Sigma), and 40 μM [^33 P]RII peptide (Peptides International) (600 cpm/pmole). Reaction mixtures were pre-incubated for 30 min at 30° C. prior to addition of the labeled peptide. The reaction was initiated by addition of the peptide and the dephosphorylation reaction was allowed to proceed for 10 min at 30° C. The reaction was terminated by the addition of 0.5 ml of 5% trichloroacetic acid containing 100 mM sodium phosphate (stop buffer) and applied to a 0.5 ml Dowex 50W-X8, H^+ column. Free [^33 P]phosphate was eluted from the column with 0.5 ml of stop buffer followed by 0.5 ml of water.

- slope of PPIase rate relative to FKBP12.6 [2]: 4.1 fold
- IC50 [3]: 9.9 nM
B1: FKBP12: abundant, cytosolic 11.8 kDa protein termed the FK-506 binding protein; bovine sequence SEQ ID NO:2 (protein)
chain: GVQVETISPGDGRTFPKRGQTCVVHYTGMLEDGKKFDSSRDRNKPFKFVLGKQEVIRGWEEGVAQMSVGQRAKLTISPDYAYGATGHPGIIPPNATLIFDVELLKLE
- complex formation with CaN [1]: a significant fraction of FKBP12 is in the FKBP12.FK-506-CaN complex
